Paper PMC5510989

Target: HIV-1 Rev (Regulator of Expression of Virion), Alexa-labelled (HIV-1 isolate BH10)
Assay: fluorescence polarisation

Molecule	Kd
MBP-DDX1 DEAD N-term + SPRY (domain or fragment)	43 nM
MBP-DDX1 WT (DEAD-Box Protein 1 fused to maltose binding protein) (enzyme) MAAFSEMGVMPEIAQAVEEMDWLLPTDIQAESIPLILGGGDVLMAAETGSGKTGAFSIPVIQIVYETLKDQQEGKKGKTTIKTGASVLNKWQMNPYDRGSAFAIGSDGLCCQSREVKEWHGCRATKGLMKGKHYYEVSCHDQGLCRVGWSTMQASLDLGTDKFGFGFGGTGKKSHNKQFDNYGEEFTMHDTIGCYLDIDKGHVKFSKNGKDLGLAFEIPPHMKNQALFPACVLKNAELKFNFGEEEFKFPPKDGFVALSKAPDGYIVKSQHSGNAQVTQTKFLPNAPKALIVEPSRELAEQTLNNIKQFKKYIDNPKLRELLIIGGVAARDQLSVLENGVDIVVGTPGRLDDLVSTGKLNLSQVRFLVLDEADGLLSQGYSDFINRMHNQIPQVTSDGKRLQVIVCSATLHSFDVKKLSEKIMHFPTWVDLKGEDSVPDTVHHVVVPVNPKTDRLWERLGKSHIRTDDVHAKDNTRPGANSPEMWSEAIKILKGEYAVRAIKEHKMDQAIIFCRTKIDCDNLEQYFIQQGGGPDKKGHQFSCVCLHGDRKPHERKQNLERFKKGDVRFLICTDVAARGIDIHGVPYVINVTLPDEKQNYVHRIGRVGRAERMGLAISLVATEKEKVWYHVCSSRGKGCYNTRLKEDGGCTIWYNEMQLLSEIEEHLNCTISQVEPDIKVPVDEFDGKVTYGQKRAAGGGSYKGHVDILAPTVQELAALEKEAQTSFLHLGYLPNQLFRTF	59 nM
MBP-DDX1 K52N (enzyme) MAAFSEMGVMPEIAQAVEEMDWLLPTDIQAESIPLILGGGDVLMAAETGSGNTGAFSIPVIQIVYETLKDQQEGKKGKTTIKTGASVLNKWQMNPYDRGSAFAIGSDGLCCQSREVKEWHGCRATKGLMKGKHYYEVSCHDQGLCRVGWSTMQASLDLGTDKFGFGFGGTGKKSHNKQFDNYGEEFTMHDTIGCYLDIDKGHVKFSKNGKDLGLAFEIPPHMKNQALFPACVLKNAELKFNFGEEEFKFPPKDGFVALSKAPDGYIVKSQHSGNAQVTQTKFLPNAPKALIVEPSRELAEQTLNNIKQFKKYIDNPKLRELLIIGGVAARDQLSVLENGVDIVVGTPGRLDDLVSTGKLNLSQVRFLVLDEADGLLSQGYSDFINRMHNQIPQVTSDGKRLQVIVCSATLHSFDVKKLSEKIMHFPTWVDLKGEDSVPDTVHHVVVPVNPKTDRLWERLGKSHIRTDDVHAKDNTRPGANSPEMWSEAIKILKGEYAVRAIKEHKMDQAIIFCRTKIDCDNLEQYFIQQGGGPDKKGHQFSCVCLHGDRKPHERKQNLERFKKGDVRFLICTDVAARGIDIHGVPYVINVTLPDEKQNYVHRIGRVGRAERMGLAISLVATEKEKVWYHVCSSRGKGCYNTRLKEDGGCTIWYNEMQLLSEIEEHLNCTISQVEPDIKVPVDEFDGKVTYGQKRAAGGGSYKGHVDILAPTVQELAALEKEAQTSFLHLGYLPNQLFRTF	65 nM
MBP-DDX1 L303E (enzyme) MAAFSEMGVMPEIAQAVEEMDWLLPTDIQAESIPLILGGGDVLMAAETGSGKTGAFSIPVIQIVYETLKDQQEGKKGKTTIKTGASVLNKWQMNPYDRGSAFAIGSDGLCCQSREVKEWHGCRATKGLMKGKHYYEVSCHDQGLCRVGWSTMQASLDLGTDKFGFGFGGTGKKSHNKQFDNYGEEFTMHDTIGCYLDIDKGHVKFSKNGKDLGLAFEIPPHMKNQALFPACVLKNAELKFNFGEEEFKFPPKDGFVALSKAPDGYIVKSQHSGNAQVTQTKFLPNAPKALIVEPSRELAEQTENNIKQFKKYIDNPKLRELLIIGGVAARDQLSVLENGVDIVVGTPGRLDDLVSTGKLNLSQVRFLVLDEADGLLSQGYSDFINRMHNQIPQVTSDGKRLQVIVCSATLHSFDVKKLSEKIMHFPTWVDLKGEDSVPDTVHHVVVPVNPKTDRLWERLGKSHIRTDDVHAKDNTRPGANSPEMWSEAIKILKGEYAVRAIKEHKMDQAIIFCRTKIDCDNLEQYFIQQGGGPDKKGHQFSCVCLHGDRKPHERKQNLERFKKGDVRFLICTDVAARGIDIHGVPYVINVTLPDEKQNYVHRIGRVGRAERMGLAISLVATEKEKVWYHVCSSRGKGCYNTRLKEDGGCTIWYNEMQLLSEIEEHLNCTISQVEPDIKVPVDEFDGKVTYGQKRAAGGGSYKGHVDILAPTVQELAALEKEAQTSFLHLGYLPNQLFRTF	> 700 nM
MBP-DDX1 G325E (enzyme) MAAFSEMGVMPEIAQAVEEMDWLLPTDIQAESIPLILGGGDVLMAAETGSGKTGAFSIPVIQIVYETLKDQQEGKKGKTTIKTGASVLNKWQMNPYDRGSAFAIGSDGLCCQSREVKEWHGCRATKGLMKGKHYYEVSCHDQGLCRVGWSTMQASLDLGTDKFGFGFGGTGKKSHNKQFDNYGEEFTMHDTIGCYLDIDKGHVKFSKNGKDLGLAFEIPPHMKNQALFPACVLKNAELKFNFGEEEFKFPPKDGFVALSKAPDGYIVKSQHSGNAQVTQTKFLPNAPKALIVEPSRELAEQTLNNIKQFKKYIDNPKLRELLIIEGVAARDQLSVLENGVDIVVGTPGRLDDLVSTGKLNLSQVRFLVLDEADGLLSQGYSDFINRMHNQIPQVTSDGKRLQVIVCSATLHSFDVKKLSEKIMHFPTWVDLKGEDSVPDTVHHVVVPVNPKTDRLWERLGKSHIRTDDVHAKDNTRPGANSPEMWSEAIKILKGEYAVRAIKEHKMDQAIIFCRTKIDCDNLEQYFIQQGGGPDKKGHQFSCVCLHGDRKPHERKQNLERFKKGDVRFLICTDVAARGIDIHGVPYVINVTLPDEKQNYVHRIGRVGRAERMGLAISLVATEKEKVWYHVCSSRGKGCYNTRLKEDGGCTIWYNEMQLLSEIEEHLNCTISQVEPDIKVPVDEFDGKVTYGQKRAAGGGSYKGHVDILAPTVQELAALEKEAQTSFLHLGYLPNQLFRTF	29 nM
MBP-DDX1 L322E (enzyme) MAAFSEMGVMPEIAQAVEEMDWLLPTDIQAESIPLILGGGDVLMAAETGSGKTGAFSIPVIQIVYETLKDQQEGKKGKTTIKTGASVLNKWQMNPYDRGSAFAIGSDGLCCQSREVKEWHGCRATKGLMKGKHYYEVSCHDQGLCRVGWSTMQASLDLGTDKFGFGFGGTGKKSHNKQFDNYGEEFTMHDTIGCYLDIDKGHVKFSKNGKDLGLAFEIPPHMKNQALFPACVLKNAELKFNFGEEEFKFPPKDGFVALSKAPDGYIVKSQHSGNAQVTQTKFLPNAPKALIVEPSRELAEQTLNNIKQFKKYIDNPKLRELEIIGGVAARDQLSVLENGVDIVVGTPGRLDDLVSTGKLNLSQVRFLVLDEADGLLSQGYSDFINRMHNQIPQVTSDGKRLQVIVCSATLHSFDVKKLSEKIMHFPTWVDLKGEDSVPDTVHHVVVPVNPKTDRLWERLGKSHIRTDDVHAKDNTRPGANSPEMWSEAIKILKGEYAVRAIKEHKMDQAIIFCRTKIDCDNLEQYFIQQGGGPDKKGHQFSCVCLHGDRKPHERKQNLERFKKGDVRFLICTDVAARGIDIHGVPYVINVTLPDEKQNYVHRIGRVGRAERMGLAISLVATEKEKVWYHVCSSRGKGCYNTRLKEDGGCTIWYNEMQLLSEIEEHLNCTISQVEPDIKVPVDEFDGKVTYGQKRAAGGGSYKGHVDILAPTVQELAALEKEAQTSFLHLGYLPNQLFRTF	> 500 nM
